Experimental findings from the supplement of paper PMC10567573 are described below.

First the molecules themselves.
B1: EPB41L3 (parent)
chain: KKFLTLGSKFRYSGRTQAQTRRAS
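Further: lentivirally expressed fusions sorted by FACS into six bins by GFP to DsRed ratio, PSI derived from sequencing read proportions per bin multiplied by bin number.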

The variants in the data set derive from B1. Nature of the data set: protein stability index of a GFP-peptide fusion (GPS, HEK-293T) (PSI 1-6); higher = more stable. To be noted: c terminus: a fixed tail appended.
As for KKFLTLKSKFRYSGRTQAQTRRAS [G7K], the protein stability index came out at 2.37.
Take KKFLTLLSKFRYSGRTQAQTRRAS [G7L]: the protein stability index came out at 2.25.
The value for KKFLTLHSKFRYSGRTQAQTRRAS [G7H] was 2.51.
As to KKFLTLGSKFRYSGRTQAQTRRYS [A23Y], the protein stability index worked out at 2.13.
Consider KKFLTLGSKFRYSGRTQAQTRRMS [A23M], for which the protein stability index was determined as 2.49.
Turning to KKFLTLGSKFRYSGRTQAQTRRPS [A23P], the protein stability index stood at 2.5.
Consider KKFLTLGSKFRYSGRTQAQTRRQS [A23Q], for which the protein stability index was found to be 3.27.
For KKFLTLGSKFRYSGRTQAQTRRGS [A23G], the protein stability index amounted to 3.69.
As for KKFLTLGSKFRYSGRTQAQTRRES [A23E], the protein stability index came to 3.21.
Take KKFLTLGSKFRYSGRTQAQTRRNS [A23N]: the protein stability index was determined as 2.85.
For the variant KKFLTLGSKFRYSGRTQAQTRRRS [A23R], the protein stability index amounted to 4.08.
On to KKFLTLGSKFRYSGRTQAQTRRWS [A23W], for which the protein stability index is 3.26.
In the case of KKFLTLGSKFRYSGRTQAQTRRHS [A23H], the protein stability index is 3.
The value for WKFLTLGSKFRYSGRTQAQTRRAS [K1W] was 1.91.
As to IKFLTLGSKFRYSGRTQAQTRRAS [K1I], the protein stability index came to 2.42.
PKFLTLGSKFRYSGRTQAQTRRAS [K1P]: the protein stability index worked out at 2.18.
As to CKFLTLGSKFRYSGRTQAQTRRAS [K1C], the protein stability index was determined as 2.56.
The value for MKFLTLGSKFRYSGRTQAQTRRAS [K1M] was 4.46; that for NKFLTLGSKFRYSGRTQAQTRRAS [K1N] was 3.5.
For HKFLTLGSKFRYSGRTQAQTRRAS [K1H], the protein stability index is 2.56.
On to KKFLTLGSKFRYSGRTQAQSRRAS [T20S], for which the protein stability index was determined as 3.56.
As to KKFLTLGSKFRYSGRTQAQYRRAS [T20Y], the protein stability index was found to be 2.69.
With KKFLTLGSKFRYSGRTQAQVRRAS [T20V], the protein stability index was found to be 3.28.
The value for KKFLTLGSKFRYSGRTQAQNRRAS [T20N] was 2.62.
As for KKFLTLGSKFRYSGRTQAQRRRAS [T20R], the protein stability index was found to be 3.47.
On to KKFLTLGSKFRYSGRTQAQARRAS [T20A], for which the protein stability index worked out at 2.64.
With KKFLTLGSKFRYSGRTQAQIRRAS [T20I], the protein stability index is 3.28.
The value for KKFLTLGSKFRYSGRTQAQLRRAS [T20L] was 2.06; that for KKTLTLGSKFRYSGRTQAQTRRAS [F3T] was 3.48; that for KKELTLGSKFRYSGRTQAQTRRAS [F3E] was 3.11.
For KKALTLGSKFRYSGRTQAQTRRAS [F3A] the value was 3.62.
For KKMLTLGSKFRYSGRTQAQTRRAS [F3M], the protein stability index stood at 3.56.
Consider KKPLTLGSKFRYSGRTQAQTRRAS [F3P], for which the protein stability index is 3.6.
As to KKYLTLGSKFRYSGRTQAQTRRAS [F3Y], the protein stability index worked out at 3.58.
As to KKNLTLGSKFRYSGRTQAQTRRAS [F3N], the protein stability index amounted to 3.59.
KKRLTLGSKFRYSGRTQAQTRRAS [F3R]: the protein stability index stood at 4.15.
The value for KKLLTLGSKFRYSGRTQAQTRRAS [F3L] was 3.22; that for KKFLTLGSKFRYSGRTQANTRRAS [Q19N] was 3.41; that for KKFLTLGSKFRYSGRTQADTRRAS [Q19D] was 1.2.
KKFLTLGSKFRYSGRTQAETRRAS [Q19E]: the protein stability index amounted to 2.69.
For the variant KKFLTLGSKFRYSGRTQAPTRRAS [Q19P], the protein stability index amounted to 3.19.
On to KKFLTLGSKFRYSGRTQAFTRRAS [Q19F], for which the protein stability index was found to be 2.1.
Regarding KKFLTLGSKFRYSGRTQAQTRPAS [R22P], the protein stability index is 2.52.
On to KKFLTLGSKFRYSGRTQAQTRWAS [R22W], for which the protein stability index turned out to be 1.41.
With KKFLTLGSKFRYSGRTQAQTRTAS [R22T], the protein stability index turned out to be 3.24.
Regarding KKFLTLGSKFRYSGRTQAQTRVAS [R22V], the protein stability index was 2.64.
KKFLTLGSKFRYSGRTQAQTRMAS [R22M]: the protein stability index turned out to be 1.75.
Take KKFLTLGSKFRYSGRTQAQTRLAS [R22L]: the protein stability index turned out to be 2.19.
The value for KKFLTLGSKFRYSGRTQAQTRSAS [R22S] was 2.7; that for KKFLTLGSKFRYSGRTQAQTRQAS [R22Q] was 2.44.
For KKFLTLGSKFRYSGRTQAQTRAAS [R22A] the value was 2.08; for KKFLTLGSKFRYSGRTQAQTRIAS [R22I], 2.02.
The value for KKFLTLGSKFRYSGRTQAQTRKAS [R22K] was 3.1.
Regarding KKFLTLGSKFRYSGRTQAQTREAS [R22E], the protein stability index is 2.72.
As for KKFLTLGSKFRYSGRCQAQTRRAS [T16C], the protein stability index was found to be 2.2.
As for KKFLTLGSKFRYSGRMQAQTRRAS [T16M], the protein stability index is 2.99.
Take KKFLTLGSKFRYSGRHQAQTRRAS [T16H]: the protein stability index came to 2.93.
As for KKFLTLGSKFRYSGRFQAQTRRAS [T16F], the protein stability index is 2.94.
For KKFLTLGSKFRYSGRNQAQTRRAS [T16N], the protein stability index was 3.28.
As for KKFLTLGSKFRYSGRSQAQTRRAS [T16S], the protein stability index is 3.36.
Consider KKFLTLGSKFRYGGRTQAQTRRAS [S13G], for which the protein stability index worked out at 2.88.
For the variant KKFLTLGSKFRYHGRTQAQTRRAS [S13H], the protein stability index worked out at 2.68.
For the variant KKFLTLGSKFRYNGRTQAQTRRAS [S13N], the protein stability index was 3.95.
For KKFLTLGSKFRYEGRTQAQTRRAS [S13E] the value was 4.01; for KKFLTLGSKFRYYGRTQAQTRRAS [S13Y], 3.1; for KKFLTLGSKFRYQGRTQAQTRRAS [S13Q], 3.04.
With KKFLTLGSKFRYMGRTQAQTRRAS [S13M], the protein stability index came out at 2.87.
In the case of KKFLTLGSKFRYIGRTQAQTRRAS [S13I], the protein stability index amounted to 2.34.
Regarding KKFLTLGSKFRYPGRTQAQTRRAS [S13P], the protein stability index worked out at 2.55.
As to KKFLTLGSKFRYCGRTQAQTRRAS [S13C], the protein stability index turned out to be 1.41.
Turning to KKFLTLGCKFRYSGRTQAQTRRAS [S8C], the protein stability index was found to be 2.04.
Regarding KKFLTLGIKFRYSGRTQAQTRRAS [S8I], the protein stability index stood at 2.33.
The value for KKFLTLGQKFRYSGRTQAQTRRAS [S8Q] was 2.78; that for KKFLTLGNKFRYSGRTQAQTRRAS [S8N] was 2.89; that for KKFLTLGRKFRYSGRTQAQTRRAS [S8R] was 3.46.
With KKFLTLGHKFRYSGRTQAQTRRAS [S8H], the protein stability index was 3.01.
Consider KKFLTLGEKFRYSGRTQAQTRRAS [S8E], for which the protein stability index came out at 3.26.
In the case of KKFLTLGLKFRYSGRTQAQTRRAS [S8L], the protein stability index turned out to be 2.17.
As for KKFLTLGMKFRYSGRTQAQTRRAS [S8M], the protein stability index was 2.74.
The value for KKFLTLGDKFRYSGRTQAQTRRAS [S8D] was 2.86; that for KKFLTLGTKFRYSGRTQAQTRRAS [S8T] was 2.88.
For KKFLTLGAKFRYSGRTQAQTRRAS [S8A] the value was 3.02; for KKFLTLGSKFRYSGRTQEQTRRAS [A18E], 3.23.
For KKFLTLGSKFRYSGRTQVQTRRAS [A18V] the value was 2.84; for KKFLTLGSKFRYSGRTQKQTRRAS [A18K], 2.61.
In the case of KKFLTLGSKFRYSDRTQAQTRRAS [G14D], the protein stability index came to 2.81.
KKFLTLGSKFRYSQRTQAQTRRAS [G14Q]: the protein stability index was determined as 3.56.
As to KKFLTLGSKFRYSKRTQAQTRRAS [G14K], the protein stability index came to 3.1.
For KKFLTLGSKFRYSNRTQAQTRRAS [G14N] the value was 3.67; for KKFLTLGSKFRYSIRTQAQTRRAS [G14I], 2.44.
For the variant KKFLTLGSKFRYSYRTQAQTRRAS [G14Y], the protein stability index was determined as 3.03.
For the variant KKFLTLGSKFRYSRRTQAQTRRAS [G14R], the protein stability index is 3.38.
Regarding KKFLTLGSKFRYSMRTQAQTRRAS [G14M], the protein stability index is 3.71.
Take KKFLTLGSKFRYSHRTQAQTRRAS [G14H]: the protein stability index is 3.57.
